The target in assay [1] is Human VEGFR-1 D1-7 (residues 1-750), full-length extracellular domain (human) (UniProt P17948). The assay is described as follows: ITC. A general note: In ITC the heat of successive injections is recorded.
The target in assay [2] is Human VEGFR-1 D1-3 (residues 1-339) (human) (UniProt P17948). Kind of assay: ITC.
Assay [3] deals with Human VEGFR-1 D1-7 (residues 1-750), full-length extracellular domain (human) (UniProt P17948). The assay is described as follows: SEC-MALS. For orientation: SEC sorts molecules by how far they enter the pores of the column.
The target in assay [4] is Human VEGFR-1 D1-6 (residues 1-660) (human) (UniProt P17948). The assay is described as follows: crystal structure.
The target of assay [5] is Human VEGFR-1 D2-7 (residues 132-750) (human) (UniProt P17948). Kind of assay: crystal structure.

Our source for the Kd and stoichiometry N values is doi:10.1101/102822.

Like-named read-outs stand apart in the source and are kept apart here.

In general, Kd refers to the constant that tells how readily two partners part at equilibrium. In assay [1] (ligand), Human VEGF-A121 gave an equilibrium dissociation constant (Kd) of 1.7 nM.
A word on the stoichiometry N: it is the number of molecules, sites or subunits per partner or assembly. In the case of Human VEGF-A121 (ligand), the Kd in assay [2] is 50 nM; in assay [1] it was 2 nM. In addition, the stoichiometry N in assay [3], in assay [4] and in assay [5] was 1 in each case.
